Experimental findings from article PMC6764681 are described below.

For assay [1], the target named is Man5-enriched stabilized CH505TF.N279K.G458Y.SOSIP.664 Env trimer (made in 293S GnT1- cells) (HIV-1 clade C, strain CH505 transmitted/founder | HIV-1 clade A, strain BG505) (UniProt Q2N0S6).
Assay [2] concerns the target CH505TF.N279K.G458Y Env on pseudovirus produced in 293T cells (not Man5-enriched) (HIV-1 clade C, strain CH505 transmitted/founder).
The target in assay [3] is Man5-enriched CH505TF.G458Y Env on pseudovirus produced in 293S GnT1- cells (HIV-1 clade C, strain CH505 transmitted/founder). The following applies: scale: fold less susceptible than the Man5-enriched double mutant.
Assay [4] has as its target Man5-enriched CH505TF.N279K Env on pseudovirus produced in 293S GnT1- cells (HIV-1 clade C, strain CH505 transmitted/founder). To be noted: scale: fold less susceptible than the Man5-enriched double mutant.
Assay [5] deals with Man5-enriched stabilized CH505TF.N279K.G458Y.SOSIP.664 Env trimer (made in 293S GnT1- cells) (HIV-1 clade C, strain CH505 transmitted/founder | HIV-1 clade A, strain BG505) (UniProt Q2N0S6). Description: cryo-EM structure; trimer at 1 mg/ml incubated with 4-5-fold molar excess of CH235 UCA2 Fab for 30-60 minutes, 0.085 mM dodecyl-maltoside; C3 symmetry, 4.2 Å.
Assay [6] concerns the target CH235 UCA2 (unmutated common ancestor of the CH235/CH235.12 lineage), IgG. Description: SPR. To be noted: apparent KD, average of two measurements.
The target in assay [7] is CH235 UCA2 (unmutated common ancestor of the CH235/CH235.12 lineage), IgG (human). Briefly: SPR; Biacore 3000; CH235 UCA2 antibody captured (200-350 RU) by goat anti-human IgG Fc immobilised on a CM3 chip; SOSIP trimers 50-750 nM in HBS-EP+ injected 5 min at 50 ul/min, 10 min dissociation; 1:1 Langmuir model with local Rmax; apparent KD, average of two measurements.
CH235 UCA2 (unmutated common ancestor of the CH235/CH235.12 lineage), IgG (human), sequence (heavy, as listed by the source, chain 1 of 2): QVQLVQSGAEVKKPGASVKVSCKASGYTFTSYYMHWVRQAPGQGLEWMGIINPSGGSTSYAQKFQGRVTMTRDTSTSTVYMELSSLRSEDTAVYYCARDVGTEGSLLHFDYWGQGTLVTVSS
CH235 UCA2 (unmutated common ancestor of the CH235/CH235.12 lineage), IgG (human), sequence (light, as listed by the source, chain 2 of 2): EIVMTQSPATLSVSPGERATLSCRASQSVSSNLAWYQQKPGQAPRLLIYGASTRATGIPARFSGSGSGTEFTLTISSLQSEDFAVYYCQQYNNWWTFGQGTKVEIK
Where [8] appears, read: trimer produced in Freestyle293 (293F) cells, parent: NB.
[9] abbreviates: trimer produced in 293S GnT1- cells.

The substance “CH235 UCA2 (unmutated common ancestor of the CH235/CH235.12 lineage), IgG (antibody)” displayed an IC50 of neutralization of Man5-enriched (293S GnT1-) CH505TF.N279K.G458Y Env-pseudotyped virus in TZM-bl cells (full-length Env on virus, not the SOSIP) in assay [1] of 0.04 µg/mL. In addition, the IC50 of neutralization of CH505TF.N279K.G458Y Env-pseudotyped virus that was not Man5-enriched, in TZM-bl cells in assay [2] is 9.2 µg/mL. For the same substance, the values for the neutralization in TZM-bl cells: fold less susceptible than the Man5-enriched double mutant in assay [3] and in assay [4] were 973 and 92, respectively.

For CH235 UCA2 Fab, in assay [5], the stoichiometry N (Fabs per Env trimer) came out at 3.

For the substance CH505TF SOSIP.664 v4.1 (293F) N279K, the Kd in assay [6] (setting [8]) is 154 nM.

As to “CH505TF SOSIP.664 v4.1 (293F) N279K; G458Y”, in assay [6] (setting [8]), the Kd came out at 83 nM.

On to “Man5-enriched stabilized CH505TF.N279K.G458Y.SOSIP.664 Env trimer (made in 293S GnT1- cells) (from UniProt Q2N0S6 1-860) (complex)”, for which the Kd in assay [7] stood at 9 nM.

“Man5-enriched stabilized parental CH505TF SOSIP.664 Env trimer (made in 293S GnT1- cells) (from UniProt Q2N0S6) G458Y”: in assay [6] (setting [9]), the Kd was determined as 996 nM.

Regarding “Man5-enriched stabilized parental CH505TF SOSIP.664 Env trimer (made in 293S GnT1- cells) (from UniProt Q2N0S6) N279K”, the Kd in assay [6] (setting [9]) is 28 nM.
